From the supplement of paper PMC9112550, “Optimization of the antimicrobial peptide Bac7 by deep mutational scanning” (BMC Biology, 2022)
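Note: peptides expressed intracellularly from a pBAD plasmid library in pooled LB shake-flask culture, induced with 0.3% L-arabinose, DNA abundance read by NGS, three biological replicates, DESeq2 with apeglm shrinkage.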

What follows are sequences tested on Escherichia coli TOP10 (assay: shrunken log2 fold change of peptide-encoding DNA abundance (4.5 h post-induction vs induction); higher = less antimicrobial activity (less host growth inhibition)). Settings: time post-induction: 4.5 h; library: site-saturation at positions 5, 18, 19, 20.
In the case of RRIRIRPPRLPRPRPRPKLCPRP, the “shrunken log2 fold change” value is reported as 0.0563. With RRIRVRPPRLPRPRPRPEITPRP the “shrunken log2 fold change” value was -0.159. In the case of RRIRIRPPRLPRPRPRPLDVPRP, the “shrunken log2 fold change” value is reported as -0.0639. With RRIRNRPPRLPRPRPRPKIAPRP the “shrunken log2 fold change” value was 0.0241. For RRIRMRPPRLPRPRPRPHTVPRP, the “shrunken log2 fold change” value was -0.0708. In the case of RRIRKRPPRLPRPRPRPGFVPRP, the “shrunken log2 fold change” value is reported as 0.259. For RRIRSRPPRLPRPRPRPMHSPRP, the “shrunken log2 fold change” value was -0.055. For RRIRGRPPRLPRPRPRPHECPRP, the “shrunken log2 fold change” value was 0.504. For RRIRMRPPRLPRPRPRPWSLPRP, the “shrunken log2 fold change” value was -0.385. RRIRPRPPRLPRPRPRPYFPPRP was tested, and the “shrunken log2 fold change” value was -0.26. With RRIRGRPPRLPRPRPRPACWPRP the “shrunken log2 fold change” value was 1.08. With RRIRTRPPRLPRPRPRPASHPRP the “shrunken log2 fold change” value was -0.42. In the case of RRIRYRPPRLPRPRPRPMVFPRP, the “shrunken log2 fold change” value is reported as -0.00776. For RRIRRRPPRLPRPRPRPPLIPRP, the “shrunken log2 fold change” value was 0.511. For RRIRCRPPRLPRPRPRPTVAPRP, the “shrunken log2 fold change” value was 0.0998. For RRIRHRPPRLPRPRPRPTQRPRP, the “shrunken log2 fold change” value was 0.462. With RRIRMRPPRLPRPRPRPVCDPRP the “shrunken log2 fold change” value was 0.367. With RRIRHRPPRLPRPRPRPDIHPRP the “shrunken log2 fold change” value was -0.171. With RRIRTRPPRLPRPRPRPSIMPRP the “shrunken log2 fold change” value was -0.827. RRIRERPPRLPRPRPRPTMTPRP was tested, and the “shrunken log2 fold change” value was -0.389. For RRIRLRPPRLPRPRPRPWVHPRP, the “shrunken log2 fold change” value was -0.3. For RRIRMRPPRLPRPRPRPDHVPRP, the “shrunken log2 fold change” value was -0.0107. RRIRDRPPRLPRPRPRPNDMPRP was tested, and the “shrunken log2 fold change” value was -0.104. For RRIRKRPPRLPRPRPRPAEEPRP, the “shrunken log2 fold change” value was 0.906. For RRIRHRPPRLPRPRPRPLDTPRP, the “shrunken log2 fold change” value was 0.0608. RRIRGRPPRLPRPRPRPNCAPRP was tested, and the “shrunken log2 fold change” value was 0.811. In the case of RRIRQRPPRLPRPRPRPGMCPRP, the “shrunken log2 fold change” value is reported as 0.0819. With RRIRLRPPRLPRPRPRPLGFPRP the “shrunken log2 fold change” value was 0.38. In the case of RRIRFRPPRLPRPRPRPFIAPRP, the “shrunken log2 fold change” value is reported as -0.489. For RRIRQRPPRLPRPRPRPKYKPRP, the “shrunken log2 fold change” value was -0.445. RRIRERPPRLPRPRPRPVGTPRP was tested, and the “shrunken log2 fold change” value was 0.0306. In the case of RRIRARPPRLPRPRPRPVGVPRP, the “shrunken log2 fold change” value is reported as 0.528. With RRIRTRPPRLPRPRPRPGGTPRP the “shrunken log2 fold change” value was -0.00579. RRIRQRPPRLPRPRPRPACMPRP was tested, and the “shrunken log2 fold change” value was -0.294. In the case of RRIRFRPPRLPRPRPRPIKMPRP, the “shrunken log2 fold change” value is reported as -0.243. In the case of RRIRRRPPRLPRPRPRPNSQPRP, the “shrunken log2 fold change” value is reported as -0.154. With RRIRQRPPRLPRPRPRPKYYPRP the “shrunken log2 fold change” value was -0.746. For RRIRWRPPRLPRPRPRPTEDPRP, the “shrunken log2 fold change” value was 0.0661. With RRIRCRPPRLPRPRPRPERDPRP the “shrunken log2 fold change” value was 0.325. RRIRARPPRLPRPRPRPSDLPRP was tested, and the “shrunken log2 fold change” value was -0.073. RRIRGRPPRLPRPRPRPIFFPRP was tested, and the “shrunken log2 fold change” value was 0.237. RRIRDRPPRLPRPRPRPPTNPRP was tested, and the “shrunken log2 fold change” value was 0.0808. For RRIRDRPPRLPRPRPRPRFYPRP, the “shrunken log2 fold change” value was 0.386. For RRIRSRPPRLPRPRPRPLQFPRP, the “shrunken log2 fold change” value was 0.0849. In the case of RRIRTRPPRLPRPRPRPVNWPRP, the “shrunken log2 fold change” value is reported as 0.0495. For RRIRMRPPRLPRPRPRPSHDPRP, the “shrunken log2 fold change” value was 0.0846. With RRIRARPPRLPRPRPRPKFKPRP the “shrunken log2 fold change” value was -0.0259. In the case of RRIRVRPPRLPRPRPRPWNMPRP, the “shrunken log2 fold change” value is reported as -0.192. With RRIRVRPPRLPRPRPRPWWPPRP the “shrunken log2 fold change” value was 0.162. With RRIRARPPRLPRPRPRPIWQPRP the “shrunken log2 fold change” value was 0.166. In the case of RRIRPRPPRLPRPRPRPFDVPRP, the “shrunken log2 fold change” value is reported as 0.0778. For RRIRKRPPRLPRPRPRPPLTPRP, the “shrunken log2 fold change” value was 0.542. In the case of RRIRKRPPRLPRPRPRPLYIPRP, the “shrunken log2 fold change” value is reported as -0.329. In the case of RRIRARPPRLPRPRPRPDLSPRP, the “shrunken log2 fold change” value is reported as 0.209. For RRIRHRPPRLPRPRPRPGRCPRP, the “shrunken log2 fold change” value was 0.127. RRIRDRPPRLPRPRPRPIHVPRP was tested, and the “shrunken log2 fold change” value was -0.554. For RRIRARPPRLPRPRPRPHRPPRP, the “shrunken log2 fold change” value was -0.0433. In the case of RRIRPRPPRLPRPRPRPFRRPRP, the “shrunken log2 fold change” value is reported as 0.0448. In the case of RRIRQRPPRLPRPRPRPEKMPRP, the “shrunken log2 fold change” value is reported as -0.145. With RRIRDRPPRLPRPRPRPVMPPRP the “shrunken log2 fold change” value was -0.189. With RRIRARPPRLPRPRPRPNIEPRP the “shrunken log2 fold change” value was 0.0171. For RRIRYRPPRLPRPRPRPNVNPRP, the “shrunken log2 fold change” value was -1.2. In the case of RRIRPRPPRLPRPRPRPESIPRP, the “shrunken log2 fold change” value is reported as -0.0804. In the case of RRIRARPPRLPRPRPRPTVMPRP, the “shrunken log2 fold change” value is reported as 0.497. For RRIRKRPPRLPRPRPRPCFQPRP, the “shrunken log2 fold change” value was -0.112. For RRIRYRPPRLPRPRPRPTESPRP, the “shrunken log2 fold change” value was 0.0538. RRIRWRPPRLPRPRPRPWWPPRP was tested, and the “shrunken log2 fold change” value was 0.19. RRIRFRPPRLPRPRPRPLSRPRP was tested, and the “shrunken log2 fold change” value was -0.102. RRIRARPPRLPRPRPRPRTIPRP was tested, and the “shrunken log2 fold change” value was 0.148. RRIRTRPPRLPRPRPRPKRAPRP was tested, and the “shrunken log2 fold change” value was 0.273. In the case of RRIRWRPPRLPRPRPRPGRPPRP, the “shrunken log2 fold change” value is reported as 0.42. With RRIRARPPRLPRPRPRPGLRPRP the “shrunken log2 fold change” value was 0.331. RRIRGRPPRLPRPRPRPPVWPRP was tested, and the “shrunken log2 fold change” value was 0.861. RRIRPRPPRLPRPRPRPCMLPRP was tested, and the “shrunken log2 fold change” value was -0.663. For RRIRARPPRLPRPRPRPVGLPRP, the “shrunken log2 fold change” value was 0.321. For RRIRRRPPRLPRPRPRPCGLPRP, the “shrunken log2 fold change” value was 0.15. With RRIRSRPPRLPRPRPRPMWNPRP the “shrunken log2 fold change” value was -0.204. RRIRWRPPRLPRPRPRPPRWPRP was tested, and the “shrunken log2 fold change” value was 0.591. For RRIRLRPPRLPRPRPRPRIQPRP, the “shrunken log2 fold change” value was 0.239. With RRIRHRPPRLPRPRPRPAYGPRP the “shrunken log2 fold change” value was -0.075. With RRIRDRPPRLPRPRPRPAQNPRP the “shrunken log2 fold change” value was 0.308. With RRIRCRPPRLPRPRPRPDKKPRP the “shrunken log2 fold change” value was -0.132. For RRIRTRPPRLPRPRPRPMLRPRP, the “shrunken log2 fold change” value was 0.0141. For RRIRYRPPRLPRPRPRPYWSPRP, the “shrunken log2 fold change” value was -0.0274. RRIRWRPPRLPRPRPRPDFGPRP was tested, and the “shrunken log2 fold change” value was -0.0549. In the case of RRIRMRPPRLPRPRPRPLLIPRP, the “shrunken log2 fold change” value is reported as -0.397. With RRIRWRPPRLPRPRPRPGQTPRP the “shrunken log2 fold change” value was -0.0122. With RRIRLRPPRLPRPRPRPNIMPRP the “shrunken log2 fold change” value was -0.602. For RRIRARPPRLPRPRPRPMEFPRP, the “shrunken log2 fold change” value was -0.117. For RRIRRRPPRLPRPRPRPMRLPRP, the “shrunken log2 fold change” value was 0.667. In the case of RRIRQRPPRLPRPRPRPNLHPRP, the “shrunken log2 fold change” value is reported as -0.255. For RRIRHRPPRLPRPRPRPAAYPRP, the “shrunken log2 fold change” value was -0.206. RRIRDRPPRLPRPRPRPTQHPRP was tested, and the “shrunken log2 fold change” value was 0.396. In the case of RRIRLRPPRLPRPRPRPEPQPRP, the “shrunken log2 fold change” value is reported as 0.728. RRIRCRPPRLPRPRPRPQSLPRP was tested, and the “shrunken log2 fold change” value was 0.0939. For RRIRKRPPRLPRPRPRPSCTPRP, the “shrunken log2 fold change” value was 0.0868. RRIRSRPPRLPRPRPRPMEYPRP was tested, and the “shrunken log2 fold change” value was -0.00133. With RRIRSRPPRLPRPRPRPDMAPRP the “shrunken log2 fold change” value was -0.0366. RRIRRRPPRLPRPRPRPQVCPRP was tested, and the “shrunken log2 fold change” value was -0.175. For RRIRNRPPRLPRPRPRPCGFPRP, the “shrunken log2 fold change” value was -0.0155. For RRIRRRPPRLPRPRPRPRWGPRP, the “shrunken log2 fold change” value was 0.533. RRIRDRPPRLPRPRPRPGKCPRP was tested, and the “shrunken log2 fold change” value was -0.105. In the case of RRIRIRPPRLPRPRPRPSHTPRP, the “shrunken log2 fold change” value is reported as -0.595. In the case of RRIRQRPPRLPRPRPRPFVGPRP, the “shrunken log2 fold change” value is reported as -0.237. RRIRFRPPRLPRPRPRPITKPRP was tested, and the “shrunken log2 fold change” value was -0.0304. With RRIRPRPPRLPRPRPRPNDSPRP the “shrunken log2 fold change” value was -0.442. With RRIRHRPPRLPRPRPRPIDRPRP the “shrunken log2 fold change” value was -0.263. For RRIRSRPPRLPRPRPRPITCPRP, the “shrunken log2 fold change” value was -0.286. With RRIRYRPPRLPRPRPRPPPSPRP the “shrunken log2 fold change” value was 0.936. RRIRERPPRLPRPRPRPESDPRP was tested, and the “shrunken log2 fold change” value was -0.0699. For RRIRHRPPRLPRPRPRPWATPRP, the “shrunken log2 fold change” value was -0.0619. With RRIRVRPPRLPRPRPRPEPCPRP the “shrunken log2 fold change” value was -0.0507. For RRIRPRPPRLPRPRPRPGMKPRP, the “shrunken log2 fold change” value was -0.257. RRIRIRPPRLPRPRPRPGKTPRP was tested, and the “shrunken log2 fold change” value was -0.126. In the case of RRIRFRPPRLPRPRPRPTSFPRP, the “shrunken log2 fold change” value is reported as 0.0329. RRIRRRPPRLPRPRPRPMWEPRP was tested, and the “shrunken log2 fold change” value was 0.00178. For RRIRCRPPRLPRPRPRPTAIPRP, the “shrunken log2 fold change” value was -0.273. With RRIRYRPPRLPRPRPRPHAEPRP the “shrunken log2 fold change” value was -0.144. With RRIRYRPPRLPRPRPRPLDTPRP the “shrunken log2 fold change” value was -0.429. In the case of RRIRFRPPRLPRPRPRPRERPRP, the “shrunken log2 fold change” value is reported as 1.02. RRIRVRPPRLPRPRPRPLSKPRP was tested, and the “shrunken log2 fold change” value was -0.303. In the case of RRIRCRPPRLPRPRPRPNDKPRP, the “shrunken log2 fold change” value is reported as -0.46. In the case of RRIRARPPRLPRPRPRPEMYPRP, the “shrunken log2 fold change” value is reported as 0.151. With RRIRCRPPRLPRPRPRPHDTPRP the “shrunken log2 fold change” value was -0.427. In the case of RRIRERPPRLPRPRPRPQTQPRP, the “shrunken log2 fold change” value is reported as -0.0049.
